Measurements as given in US20030032072A1, “Method for the assessment of allergenicity” (Novozymes A/S, priority 1999, published 2003).

B1: lipase: triacylglycerol acylhydrolase (lipase) E.C. 3.1.1.3 from Humicola lanuginosa (protein, UniProt O59952 23-291, looked up)
Lipase: EVSQDLFNQFNLFAQYSAAAYCGKNNDAPAGTNITCTGNACPEVEKADATFLYSFEDSGVGDVTGFLALDNTNKLIVLSFRGSRSIENWIGNLNFDLKEINDICSGCRGHDGFTSSWRSVADTLRQKVEDAVREHPDYRVVFTGHSLGGALATVAGADLRGNGYDIDVFSYGAPRVGNRAFAEFLTVQTGGTLYRITHTNDIVPRLPPREFGYSHSSPEYWIKSGTLVPVTRNDIVKIEGIDATGGNNQPNIPDIPAHLWYFGLIGTCL

Columns and labels:
[1] = system: Human lung epithelial cells (BEAS-2B, ATCC # CRL-9609); test: Bioassay: extracellular cytokine expression of epithelial cells, assessed by ELISA; assay type: cell-based
Description: Human lung epithelial cells (BEAS-2B, ATCC # CRL-9609) were inoculated in a culture flask (NUNC), precoated with 2% (vol/vol) Ultroser G in water, at 1500 to 3000 cells per cm^2, and were grown at 37° C. in LHC-9 medium containing 2% (vol/vol) Ultroser G and 5% CO2.
The cells were subcultured before reaching confluence. The medium was removed, and fresh 0.5% polyvinylpyrrolidone (PVP) in trypin (0.25% (wt/vol))-EDTA (0.03% (wt/vol)) solution was added until cells detached (usually after 5-10 minutes at room temperature). LHC-9 medium was added, and cells were collected by centrifugation (300× g for 15 minutes), and resuspended in LHC-9 medium containing 2% (vol/vol) Ultroser G. Finally, cells were dispensed into precoated flasks (NUNC) at a density of 1500 to 3000 cells per cm^2.
When enough cells were available to perform the planned number of assays, cells were trypinated, and were transferred to a 24-well culture plate (NUNC) (1×10^5 cells per well). Incubation was for 24 hours at 37° C. in LHC-9 medium containing 2% (vol/vol) Ultroser G and 5% CO2. […]
The extracellular expression of selected cytokines was assessed by ELISA (R&D Systems), as a function of incubation time and protein concentration. […] A calibration curve was included each time, to include quantification of the detected cytokine levels, as well as to assess assay reproducibility.

Brown Norway rats = test: Intratracheal immunization of Brown Norway rats, IgE ELISA; assay type: in vivo, rat; conditions: rats immunized intratracheally, IgE detected by ELISA, Example 5
Description: Twenty intratracheal immunizations were performed weekly with 100 microliters 0.9% (wt/vol) NaCl (control group), or 100 microliters of the protein dilution mentioned before. Each group contained 10 rats. Blood samples (2 ml) were collected from the eye one week after every second immunization. Serum was obtained by blood clothing, and centrifugation.
The IgE ELISA was performed by using the following: Buffers and Solutions:
Mouse anti-Rat IgE was diluted 200×in PBS (5 micrograms/ml). 100 microliters were added to each well. The plates were coated overnight at 4° C.
Unspecific adsorption was blocked by incubating each well for 1 hour at room temperature with 200 microliters blocking buffer. The plates were washed 3×with 300 microliters washing buffer.
Unknown rat sera and a known rat IgE solution were diluted in dilution buffer: Typically 10×, 20×and 40×for the unknown sera, and ½ dilutions for the standard IgE starting from 1 microgram/ml. 100 microliters were added to each well. […]
The reaction was stopped by adding 100 microliters H2SO4. The plates were read at 492 nm with 620 nm as reference.
Rats were immunized intratracheally with unmodified and modified protease, and the protease specific IgE levels were detected by ELISA. The IgE levels detected throughout the study were integrated, and compared relative to the levels observed in rats immunized with unmodified enzyme.

Molecule	effect on cytokine production ([1]; PMSF (10 mM) and its hydrolysis products, diluted about 1000× before being applied on the cells)	level of all cytokines (normalized cytokine levels, FIG. 5) ([1]; epithelial cell assay, Example 5)	IgE level in rats (Brown Norway rats)
O=S(=O)(F)Cc1ccccc1 [PMSF, reference compound]	no detectable effect	–	–
B1	–	high level	significantly lower IgE level
